Laboratory results reported in US20220324938A1 (published 2022).
Each block holds one binder with its values, some of them ahead of it.

Legend:
Assay in all cases: multimer staining
[1] = target: T1, SSX2 peptide on HLA-A*02:01 (human)
T1 peptide: KASEKIFYV

[2] = target: T2, MART1 peptide on HLA-B*18:01 (human)
T2 peptide: EEAAGIGIL

[3] = target: T3, MAGE-A3 peptide on HLA-B*18:01 (human)
T3 peptide: MEVDPIGHLY

[4] = target: T4, MAGE-A1 peptide on HLA-B*07:02 (human)
T4 peptide: RVRFFFPSL

binding result [3]: recognises
B3: B*18:01/MAGE-A3167-176 TCR (TCR, V domains shown)
Valpha: AQKVTQAQTEISVVEKEDVTLDCVYETRDTTYYLFWYKQPPSGELVFLIRRNSFDEQNEISGRYSWNFQKSTSSFNFTITASQVVDSAVYFCALEVRSSASKIIFGSGTRLSIRP
Vbeta: GAVVSQHPSWVICKSGTSVKIECRSLDFQATTMFWYRQFPKQSLMLMATSNEGSKATYEQGVEKDKFLINHASLTLSTLTVTSAHPEDSSFYICSANPRTTLYEQYFGPGTRLTVT

binding result [4]: recognises
B4: B*07:02/MAGE-A1289-297 TCR (TCR, V domains shown)
Valpha: AQKVTQAQTEISVVEKEDVTLDCVYETRDTTYYLFWYKQPPSGELVFLIRRNSFDEQNEISGRYSWNFQKSTSSFNFTITASQVVDSAVYFCALSESYSGAGSYQLTFGKGTKLSVIP
Vbeta: DTGVSQNPRHKITKRGQNVTFRCDPISEHNRLYWYRQTLGQGPEFLTYFQNEAQLEKSRLLSDRFSAERPKGSFSTLEIQRTEQGDSAMYLCASSLASGSNQPQHFGDGTRLSIL

Continued, binder first:

B1: A*02:01/SSX241-49 TCR (TCR, V domains shown)
Valpha: KQEVTQIPAALSVPEGENLVLNCSFTDSAIYNLQWFRQDPGKGLTSLLLIQSSQREQTSGRLNASLDKSSGRSTLYIAASQPGDSATYLCAVEPMEYGNKLVFGAGTILRVKS
Vbeta: DGGITQSPKYLFRKEGQNVTLSCEQNLNHDAMYWYRQDPGQGLRLIYYSQIVNDFQKGDIAEGYSVSREKKESFPLTVTSAQKNPTAFYLCASSALFSGANVLTFGAGSRLTVL
binding result [1]: recognises

B2: B*18:01/MART125-33 TCR (TCR, V domains shown)
Valpha: GQNIDQPTEMTATEGAIVQINCTYQTSGFNGLFWYQQHAGEAPTFLSYNVLDGLEEKGRFSSFLSRSKGYSYLLLKELQMKDSASYLCAVYGGATNKLIFGTGTLLAVQP
Vbeta: NAGVMQNPRHLVRRRGQEARLRCSPMKGHSHVYWYRQLPEEGLKFMVYLQKENIIDESGMPKERFSAEFPKEGPSILRIQQVVRGDSAAYFCASSPHAGGVDEKLFFGSGTQLSVL
binding result [2]: recognises
